# Data published in patent US20150111836, “CELLULAR APOBEC3 PROTEINS AND MODULATORS THEREOF FOR REGULATING DNA REPAIR PROCESSES AND TREATING PROLIFERATIVE DISEASES” (YISSUM RESEARCH DEVELOPMENT COMPANY OF THE HEBREW …, published 2015).
# How the values were obtained:
# APOBEC3G (A3G) [1] = biological target: T1, APOBEC3G (A3G) (Homo sapiens, UniProt Q9HC16 SEQ:1-384); experiment: EMSA; 8 min 37 C; RPA pre-binding inhibits monomeric complex (FIG. 5C); details: tags: C-terminal Myc-His6, expressed in 293T cells; chain copies: monomer to multimer (stated); label: 3' dATP-biotin (TdT)
# T1 sequence (Q9HC16 whole entry): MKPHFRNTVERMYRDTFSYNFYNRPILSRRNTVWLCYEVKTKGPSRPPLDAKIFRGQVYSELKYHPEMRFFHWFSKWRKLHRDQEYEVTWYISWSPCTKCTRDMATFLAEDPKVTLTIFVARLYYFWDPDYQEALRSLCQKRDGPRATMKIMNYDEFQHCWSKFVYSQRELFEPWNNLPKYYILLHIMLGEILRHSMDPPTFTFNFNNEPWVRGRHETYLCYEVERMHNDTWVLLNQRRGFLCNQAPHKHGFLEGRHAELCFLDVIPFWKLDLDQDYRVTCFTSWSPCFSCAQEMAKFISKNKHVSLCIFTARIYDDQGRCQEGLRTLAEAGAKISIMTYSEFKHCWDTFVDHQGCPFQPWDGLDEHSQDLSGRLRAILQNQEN
# Protocol: (§1) FIG. 3B. Electro-mobility shift assay (EMSA). The indicated proteins were incubated with biotinylated SC oligonucleotides (80 nt) for 8 min at 37° C. and resolved by native PAGE. Acrylamide gels were transferred to nylon membranes and probed by enhanced chemiluminescence.
# APOBEC3G W285A = APOBEC3G W285A (Homo sapiens, UniProt Q9HC16 SEQ:1-384); experiment: EMSA; binding similar to wild type; details: tags: C-terminal His6, expressed in 293T cells; label: 3' dATP-biotin (TdT)
# APOBEC3G W285A, sequence (Q9HC16 whole entry W285A): as the sequence (Q9HC16 whole entry) above, with W285A counted along it
# Protocol: as §1
# APOBEC3G (A3G) [2] = biological target: T1, APOBEC3G (A3G); experiment: EMSA; 8 min RT; details: tags: C-terminal Myc-His6, expressed in 293T cells; chain copies: monomer to multimer (stated)
# Protocol: (§2) FIG. 2D. A3G end-dependent association with ssDNA was assessed by electro-mobility shift assay (EMSA). S₁₆₀ oligonucleotide ends (3′, 5′, 3′+5′) were annealed to short complementary oligonucleotides (30 nt) and then incubated with A3G or BSA for 8 min at room temperature (RT). Acrylamide gels were stained with SYBR gold nucleic acid stain.
# APOBEC3G (A3G) [3] = biological target: T1, APOBEC3G (A3G); experiment: EMSA; either 3' or 5' ssDNA terminus required; 5' preference; details: tags: C-terminal Myc-His6, expressed in 293T cells, chain copies: monomer to multimer (stated), 3' end 30 nt duplex
# Protocol: as §2
binder,measurement,setting,value
SC (ssDNA) DNA: GGATTGGTTGGTTATTTGTTTAAGGAAGGTGGATTAAAGGCCCATAAGGTGATGGAAGTTATGTTTGGTAGATTGATGG,binding result,APOBEC3G (A3G) [1],binds
same,binding result,APOBEC3G W285A,binds
S160 (ssDNA) DNA: GGATTGGTTGGTTATTTGTTTAAGGAAGGAAGAAGGAAGGCCCAATAAGGGAAGGCCCAATAAGTGGGAAGGCCCAATAAGTGAATTAAATAAGTGATTGATAAATAAGTGATTGATAAGTTGATTAAATAGTTGGAAGTTATGTTTGGTAGATTGATGG,binding result,APOBEC3G (A3G) [2],binds
S160 with 3' end double-stranded (mixed) DNA 1: GGATTGGTTGGTTATTTGTTTAAGGAAGGAAGAAGGAAGGCCCAATAAGGGAAGGCCCAATAAGTGGGAAGGCCCAATAAGTGAATTAAATAAGTGATTGATAAATAAGTGATTGATAAGTTGATTAAATAGTTGGAAGTTATGTTTGGTAGATTGATGG DNA 2: CCATCAATCTACCAAACATAACTTCCATCA,binding result,APOBEC3G (A3G) [3],binds
